Data from patent publication US20240317871A1 (IMMUNOMIC THERAPEUTICS, published 2024).
Positions count from the first letter of the chain named.

T1: His-tagged human HVEM (human, UniProt Q92956 39-202, limits assumed)
T1 construct: Analyte of the BLI assay, 200 nM in PBS; not shown: His tag
T1 sequence (looked up): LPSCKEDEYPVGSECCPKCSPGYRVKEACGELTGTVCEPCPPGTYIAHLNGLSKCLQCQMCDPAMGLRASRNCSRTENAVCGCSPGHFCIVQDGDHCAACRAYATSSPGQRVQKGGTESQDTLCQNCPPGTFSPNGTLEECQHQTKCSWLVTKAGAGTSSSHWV

T2: Human HEVM recombinant protein (Sino Biological, 10334-H02H) (human, UniProt Q92956 39-202)
T2 construct: construct known only by catalogue number; also called HVEM; human HVEM
T2 sequence (looked up): T1 sequence (looked up)

T3: cynomolgus monkey HVEM (cynomolgus monkey, UniProt A0A2K5W0R1 39-203)
T3 sequence: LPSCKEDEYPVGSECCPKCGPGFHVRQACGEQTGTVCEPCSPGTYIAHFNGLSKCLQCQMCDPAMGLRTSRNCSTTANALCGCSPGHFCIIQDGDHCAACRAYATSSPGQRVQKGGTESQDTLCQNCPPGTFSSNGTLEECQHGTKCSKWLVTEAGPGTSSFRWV

T4: human HVEM (human, UniProt Q92956 39-202, limits assumed)
T4 sequence (looked up): T1 sequence (looked up)

T5: murine HVEM (murine, UniProt Q80WM9 39-206, limits assumed)
T5 construct: also called Mouse
T5 sequence (looked up): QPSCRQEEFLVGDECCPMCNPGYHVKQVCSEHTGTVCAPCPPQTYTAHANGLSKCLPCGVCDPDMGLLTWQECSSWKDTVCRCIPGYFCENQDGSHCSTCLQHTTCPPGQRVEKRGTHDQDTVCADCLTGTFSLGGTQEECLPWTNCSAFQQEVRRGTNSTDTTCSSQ

B1: Ab_004 (H5S14-24A4A) (antibody, V domains shown)
VH: EVQLQQSGPELVKPGTSVKISCKTSGYTITEYTMHWVKQSHGKSLEWIGGINPNNGGTINNQKFKDKATLTVDMSSSTAYMELRSLTSEDSAVYYCAGSVVDRYWYFDVWGAGTTVTVSS
VL: QIVLTQSPAIMSASPGEKVTISCSASSSVSYMYWYQQKPGSSPKPWIYRTSNLASGVPARFSGSGSGTSYSLTISSMEAEDAATYYCQQYHSYPLTFGAGTKLELK
notes: also called Ab_4
B2: Ab_005 (H5S14-4A4A) (antibody, V domains shown)
VH: B1 VH with T16A, I29F, N54Y, D66G
VL: B1 VL
notes: also called Ab_5
B3: Ab_053 (H5S19-20A20A) (antibody, V domains shown)
VH: QVQLKESGPGLVAPSQSLSITCTVSGFSLTSYGVHWVRQPPGKGLEWLGVIWAGGITNYNSALMSRLSISKDNSKSQVFLKMNSLQTDDTAMYYCARDWERDSSGPFVYWGQGTLVTVSA
VL: DIQMTQTTSSLSASLGDRVTISCTASQGISNYLNWYQQKPDGTVKLLIYYTSTLHSGVPSRFSGSGSGTDYSLTISNLEPEDIATYYCQQYFKLPWTFGGGTKLEIK
notes: also called Ab_53
B4: Ab_052 (H5S19-18A17B) (antibody, V domains shown)
VH: B3 VH with S31I, T57I, T87S, V108A
VL: B3 VL with T24S, T53S, S63R, F92S
notes: also called Ab_52
B5: Ab_055 (H5S19-1A1A) (antibody, V domains shown)
VH: DVQLQESGPGLVKPSQSLSLTCTVTGYSITSDYAWNWIRQFPGNKLEWMGYIAYSGGTSYSPSLKSRISITRDTSKNQFFLQLNSVTTEDTATYYCVYFKYGGAFAYWGQGTLVTVSA
VL: NIVLTQSPASLAVSLGQRATISCRASESVDSYGNSLMHWYQQKPGQPPKLLIYLASNLESGVPARFSGSGSRTDFTLTIDPVEADDAATYYCQQNNEDPPTFGGGTKLEI
notes: also called Ab_55
B6: Ab_058 (H5S19-6A8A) (antibody, V domains shown)
VH: EVQLVESGGGLVKPGGSLKLSCAASGFTFNIYTMSWVRQSPEMRLEWVAEISSGGSHTYYPDTVTGRFTISRDNAKNTLYLEMSSLRSEDTAIYYCARGGSLFDYWGQGTTLTVSS
VL: DVQITQSPSYLAASPGETITINCRTSKNISKYLAWYQEKPGKTNKLLIYSGSTLQSGIPSRFSGSGSGTDFTLTISSLEPEDFVMYHCQQHNEYPWTFGGGTKLEIK
notes: also called Ab_58
B7: Ab_008 (H5S14-11A10A) (antibody, V domains shown)
VH: EVKLVESGGGLVKPGGSLRLSCAASGFTFSSFAMSWIRQTPEKGLEWVASITTGGSSYSPDSLKGRFTISRDNVRNIVYLQMSSLRSEDTAMYACARGGGGNYFWFAYWGQGTLVTVSA
VL: DVVMTQTPLSLPVSLGDQASISCRSSQSLVHSNGNTYLHWYLQKPGQSPKLLIYKVSNRFSGVPDRFSGSGSGTDFTLKISRVEAEDLGVYFCSQSIHVPFTFGSGTKLEIK
notes: also called Ab_8
B8: Ab_077 (H5S20-31A16B) (antibody, V domains shown)
VH: EVQLQQSGAELVRSGASVKLSCTTSGFNIKDYYMHWVKQRPEQGLEWIGWIDPENGDTEYAPKFQGKATMTADTSSNTAYLQLSSLTSEDTAVYYCNSRTLGYWGQGTLVTVSA
VL: QIVLTQSPALMSASPGEKVTMTCSASSSVSFIYWYQQKPRSSPKPWIYLTSNLASGVPARFSGSGSGTSYSLTISSMEAEDAATYYCQQWSSNPLTFGAGTKLEL
notes: also called Ab_77
B9: Ab_034 (H5S15-16A11B) (antibody, V domains shown)
VH: DVQLVESGGGLVQPGGSRKLSCAASGFTFSSFGMHWVRQAPEKGLEWVAHISSGSSTIYYADTVKGRFTISRDNPKNTLFLQMTSLRSEDTAMYYCARGAYGNFAWFPYWGQGTLVTVSA
VL: DVVMTQTPLSLSVSLGDQASISCRSSQSLVHSNGNTYLHWYLQKPGQSPKLLIYKVSNRFSGVPDRFSGSGSGTDFTLKISRVEAEDLGVYFCSQSTHVPTFGSGTKLEIK
notes: also called Ab_34
B10: Ab_035 (H5S15-9A10A) (antibody, V domains shown)
VH: B9 VH with S31D
VL: B9 VL with S12P, S32T, K50R, S70G
notes: also called Ab_35
B11: Ab_076 (H5S20-26A22A) (antibody, V domains shown)
VH: QIQLVQSGPELKKPGETVKISCRASGYTFTNYGMNWVKQAPGKGLKWMGWINTYTGEPTYADDFKGRFAFSLETSASSAYLQINNLKNEDMATYFCARSLYYGDNYEAYWGQGTLVTVSA
VL: QIVLTQSPAIMSASLGEEITLTCSASSSVSYMHWYQQKSGSSPKLLIYTTSNLASGVPSRFSGSGSGTFYSLTISSVEAEDAADYYCHQWSSYTWTFGGGTKLEIK
notes: also called Ab_76
B12: Ab_081 (H5S20-44A32A) (antibody, V domains shown)
VH: EVKLVESGGGLVQPGGSLKLSCAASGFTFSSYTMSWVRQTPEKRLEWVAYISNGGGSTYYPDTVKGRFTISRDNAKNTLYLQMSSLKSEDTAMYYCARHRGYGSSYNYAMDYWGQGTSVTVSS
VL: DIVMTQSQKFMSTSVGDRVSVTCKASQNVGTNVAWYQQKPGQSPKALIYSASYRYSGVPDRFTGSGSGTDFTLTISNVQSEDLAEYFCQQYNSYPFTFGSGTKLEIK
notes: also called Ab_81
B13: Ab_082 (H5S20-55A36A) (antibody, V domains shown)
VH: EVKLVESGGGLVQPGGSLKLSCAASGFTFSSYTMSWVRQTPEKRLEWVADISNGGGSTYYPDTVKGRFTISRDNAKNTLYLQMSSLKSEDTAMYYCARHRGYGNYVYAMDYWGQGTSVTVSS
VL: B12 VL with F96L, S100G
notes: also called Ab_82
B14: Ab_085 (H5S20-53A41A) (antibody, V domains shown)
VH: EVQLVESGGGLVKPGGSLKLSCAASGFTFSSYAMSWVRQSPEKRLEWVAEISSGGSYTYYPDTVTGRFTISRDNAKNTLYLEMSSLRSEDTAMYYCAREGLRRDYYALDYWGQGTSVTVSS
VL: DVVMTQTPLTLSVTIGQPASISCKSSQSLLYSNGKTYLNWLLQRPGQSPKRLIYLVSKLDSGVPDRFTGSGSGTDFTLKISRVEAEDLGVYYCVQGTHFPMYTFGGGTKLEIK
notes: also called Ab_85

biological target: T1, His-tagged human HVEM; test: BLI OctetRed96, mAb captured, 200 nM His-HVEM
Protocol: Binding of antibodies to HVEM may also be determined by bio-layer interferometry (BLI) on an OctetRed96@ system (Sartorius). (See http://www.fortebio.com/bli_technology.html for general description of a BLI assay.) For this experiment, murine anti-human HVEM antibodies were captured from culture supernatant using anti-mouse IgG Fc capture and immobilized to dip and read biosensors. Sensors were then dipped into a solution of 200 nM His-tagged human HVEM in phosphate-buffered saline (PBS). Probes were dipped into PBS assay buffer and the dissociation rate (koff) was measured. The association rate (kₒₙ) and affinity (KD) were determined by curve fitting analysis.

Binder	kon [M⁻¹ s⁻¹]	Kd [nM]	koff [s⁻¹]
B1	769	–	–
B2	2240	–	–
B3	42700	103	0.00439
B4	80700	90.9	0.00734
B5	30200	544	0.0164
B6	469000	2.67	0.00125
B7	482000	4.8	0.00231
B8	86600	12400	1.08
B9	270000	8.67	0.00235
B10	357000	6.58	0.00235

biological target: T2, Human HEVM recombinant protein (Sino …); test: competition ELISA, competitor BTLA-His
Protocol: The competitive activity of HVEM antibody to BTLA or LIGHT was evaluated with ELISA-based competitive assay. Briefly Human HEVM recombinant protein (Sino Biological, 10334-H02H, 4 ug/ml, 100 ul/well) was coated to ELISA plate (Thermo Scientific, 469949, 4C overnight). A pre-mixture of HVEM antibody clone with seral dilution and 400 nM BTLA-His (R&D systems, 9235-BT-050) or LIGHT-His (SinoBiological, 10386-H07H) recombinant protein was made and added to the ELISA plate after blocking with 3% BSA (200 ul/well, RT 2 Hr) for 1 Hr at RT. The serial dilutions of HVEM antibody clone involve 7 different concentrations, with a 3-fold dilution performed start from 100 nM for BTLA or 325 nM for LIGHT competitive assay. The concentration was the final concentration. Plate was washed with PBST; diluted HRP-anti-His (Biolegend, 652504, 1:1000) with PBS containing 5% FBS was added 100 ul per well for 1 Hr at RT. TMB substrate (KPL, 52-00-00) 100 ul per well after washing and incubate at room temperature for 15 minutes; then stop the development by adding 100 ul stop solution (KPL, 50-85-06). Plate was read at 450 nm. The IC50 was calculated using GraphPad Prism software (GraphPad Software, Inc. San Diego, CA, USA).

Binder	IC50 [nM]
B6	1.3
B7	1.9
B9	1.3
B10	1.4

biological target: T3, cynomolgus monkey HVEM; test: ELISA

Binder	ELISA signal
B1	0.062
B2	0.063
B3	2.1
B4	2.32
B5	2.21
B6	0.064
B7	2.94
B8	0.079
B11	2.96
B12	0.076
B13	0.06
B14	0.061

biological target: T4, human HVEM; test: ELISA

Binder	ELISA signal
B1	2.42
B2	2.44
B3	2.89
B4	2.88
B5	2.95
B6	3.16
B7	3.4
B8	0.147
B9	3.19
B10	3.2
B11	2.89
B12	1.59
B13	0.844
B14	0.049

biological target: T5, murine HVEM; test: ELISA

Binder	ELISA signal
B1	0.044
B2	0.048
B3	0.042
B4	0.042
B5	0.042
B6	0.043
B7	0.077
B8	0.043
B9	0.045
B10	0.045
B11	0.044
B12	0.048
B13	0.044
B14	0.046
